# Target: T1, I53-50B.4PosT1
# T1 construct: also called second component; CompB
# Assay: in vitro assembly with I53-50B, DLS
# Procedure: Selected constructs were incubated with a second component, I53-50B, to form nanostructures. Dynamic Light Scattering (DLS) and negative-stain electron microscopy (nsEM) confirm assembly as nanostructure. A representative electron micrograph is shown in FIG. 5 (RSV/B.195, having the DS-Cav).
# Assembly: Molar concentrations for RSV/B or RSV/A trimers fused to I53-50AΔcys and I53-50B (second component, using the sequence of I53-50B.4PosT1, SEQ ID NO:46) were determined using UV-Vis spectroscopy. Absorbance values at 280 nm were collected and divided by calculated molar extinction coefficients (ExPASy). The assembly reaction to produce RSVB antigen-bearing nanostructures was performed in vitro with the addition of components as follows: RSV F trimers fused to I53-50AΔcys were added to PCR tubes in 1.5× molar excess of I53-50B, then assembly buffer (20 mM Tris pH 7.4, 250 mM NaCl, 4% sucrose) was added to the sample in PCR tubes, and finally I53-50B was added to the reaction to bring the assemblies to a final concentration of 7.5 μM and a final volume of 47.5 μL. The reaction was incubated at ambient temperature for ˜30 minutes with gentle rocking prior to subsequent measurement by dynamic light scattering (DLS). All constructs were assembly competent under the conditions tested. Prior to nsEM analysis or immunogenicity studies, assembled nanostructures were further purified by size exclusion chromatography over a Superose 6 Increase 10/300 GL column into 20 mM Tris pH 7.4, 250 mM NaCl, 4% sucrose.
row,Binder,binding result
1,RSV/B.099 (other) QNITEEFYQSTCSAVSRGYLSALRTGWYTSVITIELSNIKEVKCNGTDTKVKLIKQELDKYKNAVTELQLLMQNTPAVNNRARREAPQYMNYTINTTKNLNVSISKKRKRRFLGFLLGVGSAIASGIAVCKVLHLEGEVNKIKNALQLTNKAVVSLSNGVSVLTFRVLDLKNYINNQLLPMLNRQSCRISNIETVIEFQQKNSRLLEITREFSVNAGVTTPLSTYMLTNSELLSLINDMPITNDQKKLMSSNVQIVRQQSYSIMCIIKEEVLAYVVQLPIYGVIDTPCWKLHTSPLCTTNIKEGSNICLTRTDRGWYCDNAGSVSFFPQADTCKVQSNRVFCDTMNSLTLPSEVSLCNTDIFNSKYDCKIMTSKTDISSSVITSLGAIVSCYGKTKCTASNKNRGIIKTFSNGCDYVSNKGVDTVSVGNTLYYVNKLEGKNLYVKGEPIINYYDPLVFPSDRFDASISQVNEAINQSLAFIRRSDELLGSGGSGSGSGGSEKAAKAEEAARKMEELFKKHKIVAVLRANSVEEAIEKAVAVFAGGVHLIEITFTVPDADTVIKALSVLKEKGAIIGAGTVTSVEQARKAVESGAEFIVSPHLDEEISQFAKEKGVFYMPGVMTPTELVKAMKLGHTILKLFPGEVVGPQFVKAMKGPFPNVKFVPTGGVNLDNVAEWFKAGVLAVGVGSALVKGTPDEVREKAKAFVEKIRGATELEHHHHHH,binds
2,RSV/B.093 (other) QNITEEFYQSTCSAVSRGYLSALRTGWYTSVITIELSNIKETKCNGTDTKVKLIKQELDKYKNAVTELQLLMQNTPAVNNRARREAPQYMNYTINTTKNLNVSISKKRKRRFLGFLLGVGSAIASGIAVCKVLHLEGEVNKIKNALQLTNKAVVSLSNGVSVLTFRVLDLKNYINNQLLPMLNRQSCRISNIETVIEFQQKNSRLLEITREFSVNAGVTTPLSTYMLTNSELLSLINDMPITNDQKKLMSSNVQIVRQQSYSIMCIIKEEVLAYVVQLPIYGVIDTPCWKLHTSPLCTTNIKEGSNICLTRTDRGWYCDNAGSVSFFPQADTCKVQSNRVFCDTMNSLTLPSEVSLCNTDIFNSKYDCKIMTSKDDISSSVITSLGAIVSCYGKTKCTASNKNRGIIKTFSNGCDYVSNKGVDTVSVGNTLYYVNKLEGKNLYVKGEPIINYYDPLVFPSARWAASISQVNEAINQSLAFIRRSDELLGSGGSGSGSGGSEKAAKAEEAARKMEELFKKHKIVAVLRANSVEEAIEKAVAVFAGGVHLIEITFTVPDADTVIKALSVLKEKGAIIGAGTVTSVEQARKAVESGAEFIVSPHLDEEISQFAKEKGVFYMPGVMTPTELVKAMKLGHTILKLFPGEVVGPQFVKAMKGPFPNVKFVPTGGVNLDNVAEWFKAGVLAVGVGSALVKGTPDEVREKAKAFVEKIRGATELEHHHHHH,binds
3,RSV/B.123 (other) QNITEEFYQSTCSAVSRGYLSALRTGWYTSVITIELSNIKEVKCNGTDTKVKLIKQELDKYKNAVTELQLLMQNTPAVNNRARREAPQYMNYTINTTKNLNVSISKKRKRRFLGFLLGVGSAIASGIAVCKVLHLEGEVNKIKNALQLTNKAVVSLSNGVSVLTFRVLDLKNYINNQLLPMLNRQSCRISNIETVIEFQQKNSRLLEITREFSVNAGVTTPLSTYMLTNSELLSLINDMPITNDQKKLMSSNVQIVRQQSYSIMCIIKEEVLAYVVQLPIYGVIDTPCWKLHTSPLCTTNIKEGSNICLTRTDRGWYCDNAGSVSFFPQADTCKVQSNRVFCDTMNSLTLPSEVSLCNTDIFNSKYDCKIMTSKDDISSSVITSLGAIVSCYGKTKCTASNKNRGIIKTFSNGCDYVSNKGVDTVSVGNTLYYVNKLEGKNLYVKGEPIINYYDPLVFPSDRFAASISQVNEAINQSLAFIRRSDELLGSGGSGSGSGGSEKAAKAEEAARKMEELFKKHKIVAVLRANSVEEAIEKAVAVFAGGVHLIEITFTVPDADTVIKALSVLKEKGAIIGAGTVTSVEQARKAVESGAEFIVSPHLDEEISQFAKEKGVFYMPGVMTPTELVKAMKLGHTILKLFPGEVVGPQFVKAMKGPFPNVKFVPTGGVNLDNVAEWFKAGVLAVGVGSALVKGTPDEVREKAKAFVEKIRGATELEHHHHHH,binds
4,"RSV/B.002 (other, DS-Cav1 control; also called DS-Cav1 RSV/B.002) QNITEEFYQSTCSAVSRGYLSALRTGWYTSVITIELSNIKETKCNGTDTKVKLIKQELDKYKNAVTELQLLMQNTPAVNNRARREAPQYMNYTINTTKNLNVSISKKRKRRFLGFLLGVGSAIASGIAVCKVLHLEGEVNKIKNALQLTNKAVVSLSNGVSVLTFRVLDLKNYINNQLLPMLNRQSCRISNIETVIEFQQKNSRLLEITREFSVNAGVTTPLSTYMLTNSELLSLINDMPITNDQKKLMSSNVQIVRQQSYSIMCIIKEEVLAYVVQLPIYGVIDTPCWKLHTSPLCTTNIKEGSNICLTRTDRGWYCDNAGSVSFFPQADTCKVQSNRVFCDTMNSLTLPSEVSLCNTDIFNSKYDCKIMTSKTDISSSVITSLGAIVSCYGKTKCTASNKNRGIIKTFSNGCDYVSNKGVDTVSVGNTLYYVNKLEGKNLYVKGEPIINYYDPLVFPSDEFDASISQVNEKINQSLAFIRRSDELLGSGGSGSGSGGSEKAAKAEEAARKMEELFKKHKIVAVLRANSVEEAIEKAVAVFAGGVHLIEITFTVPDADTVIKALSVLKEKGAIIGAGTVTSVEQARKAVESGAEFIVSPHLDEEISQFAKEKGVFYMPGVMTPTELVKAMKLGHTILKLFPGEVVGPQFVKAMKGPFPNVKFVPTGGVNLDNVAEWFKAGVLAVGVGSALVKGTPDEVREKAKAFVEKIRGATELEHHHHHH",binds
5,RSV/B.100 (other) QNITEEFYQSTCSAVSRGYLSALRTGWYTSVITIELSNIKEVKCNGTDTKVKLIKQELDKYKNAVTELQLLMQNTPAVNNRARREAPQYMNYTINTTKNLNVSISKKRKRRFLGFLLGVGSAIASGIAVCKVLHLEGEVNKIKNALQLTNKAVVSLSNGVSVLTFRVLDLKNYINNQLLPMLNRQSCRISNIETVIEFQQKNSRLLEITREFSVNAGVTTPLSPYMLTNSELLSLINDMPITNDQKKLMSSNVQIVRQQSYSIMCIIKEEVLAYVVQLPIYGVIDTPCWKLHTSPLCTTNIKEGSNICLTRTDRGWYCDNAGSVSFFPQADTCKVQSNRVFCDTMNSLTLPSEVSLCNTDIFNSKYDCKIMTSKTDISSSVITSLGAIVSCYGKTKCTASNKNRGIIKTFSNGCDYVSNKGVDTVSVGNTLYYVNKLEGKNLYVKGEPIINYYDPLVFPSDRFDASISQVNEAINQSLAFIRRSDELLGSGGSGSGSGGSEKAAKAEEAARKMEELFKKHKIVAVLRANSVEEAIEKAVAVFAGGVHLIEITFTVPDADTVIKALSVLKEKGAIIGAGTVTSVEQARKAVESGAEFIVSPHLDEEISQFAKEKGVFYMPGVMTPTELVKAMKLGHTILKLFPGEVVGPQFVKAMKGPFPNVKFVPTGGVNLDNVAEWFKAGVLAVGVGSALVKGTPDEVREKAKAFVEKIRGATELEHHHHHH,binds
6,RSV/B.081 (other) QNITEEFYQSTCSAVSRGYLSALRTGWYTSVITIELSNIKETKCNGTDTKVKLIKQELDKYKNAVTELQLLMQNTPAVNNRARREAPQYMNYTINTTKNLNVSISKKRKRRFLGFLLGVGSAIASGIAVCKVLHLEGEVNKIKNALQLTNKAVVSLSNGVSVLTFRVLDLKNYINNQLLPMLNRQSCRISNIETVIEFQQKNSRLLEITREFSVNAGVTTPLSTYMLTNSELLSLINDMPITNDQKKLMSSNVQIVRQQSYSIMCIIKEEVLAYVVQLPIYGVIDTPCWKLHTSPLCTTNIKEGSNICLTRTDRGWYCDNAGSVSFFPQADTCKVQSNRVFCDTMNSLTLPSEVSLCNTDIFNSKYDCKIMTSKDDISSSVITSLGAIVSCYGKTKCTASNKNRGIIKTFSNGCDYVSNKGVDTVSVGNTLYYVNKLEGKNLYVKGEPIINYYDPLVFPSARFAASISQVNEAINQSLAFIRRSDELLGSGGSGSGSGGSEKAAKAEEAARKMEELFKKHKIVAVLRANSVEEAIEKAVAVFAGGVHLIEITFTVPDADTVIKALSVLKEKGAIIGAGTVTSVEQARKAVESGAEFIVSPHLDEEISQFAKEKGVFYMPGVMTPTELVKAMKLGHTILKLFPGEVVGPQFVKAMKGPFPNVKFVPTGGVNLDNVAEWFKAGVLAVGVGSALVKGTPDEVREKAKAFVEKIRGATELEHHHHHH,binds
7,RSV/B.171 (other) QNITEEFYQSTCSAVSRGYLSALRTGWYTSVITIELSNIKETKCNGTDTKVKLIKQELDKYKNAVTELQLLMQNTPAVNNRARREAPQYMNYTINTTKNLNVSISKKRKRRFLGFLLGVGSAIASGIAVCKVLHLEGEVNKIKNALQLTNKAVVSLSNGVSVLTFRVLDLKNYINNQLLPMLNRQSCRISNIETVIEFQQKNSRLLEITREFSVNAGVTTPLSTYMLTNSELLSLINDMPITNDQKKLMSSNVQIVRQQSYSIMCIIKEEVLAYVVQLPIYGVIDTPCWKLHTSPLCTTNIKEGSNICLTRTDRGWYCDNAGSVSFFPQADTCKVQSNRVFCDTMNSLTLPSEVSLCNTDIFNSKYDCKIMTSKDDISSSVITSLGAIVSCYGKTKCTASNKNRGIIKTFSNGCDYVSNKGVDTVSVGNTLYYVNKLEGKNLYVKGEPIINYYDPLVFPSDRFAASISQVNEAINQSREIIRAINIVRKIASEKGSGGSGSGSGGSEKAAKAEEAARKMEELFKKHKIVAVLRANSVEEAIEKAVAVFAGGVHLIEITFTVPDADTVIKALSVLKEKGAIIGAGTVTSVEQARKAVESGAEFIVSPHLDEEISQFAKEKGVFYMPGVMTPTELVKAMKLGHTILKLFPGEVVGPQFVKAMKGPFPNVKFVPTGGVNLDNVAEWFKAGVLAVGVGSALVKGTPDEVREKAKAFVEKIRGATELEHHHHHH,binds

# From patent publication US20250188131A1 (ICOSAVAX, published 2025)
